Legend:
[1] = target: T1, STAG2–RAD21 complex (wild type) (human | , UniProt Q8N3U4 1-1231; O60216 1-631); experiment: ITC
T1 chain 1: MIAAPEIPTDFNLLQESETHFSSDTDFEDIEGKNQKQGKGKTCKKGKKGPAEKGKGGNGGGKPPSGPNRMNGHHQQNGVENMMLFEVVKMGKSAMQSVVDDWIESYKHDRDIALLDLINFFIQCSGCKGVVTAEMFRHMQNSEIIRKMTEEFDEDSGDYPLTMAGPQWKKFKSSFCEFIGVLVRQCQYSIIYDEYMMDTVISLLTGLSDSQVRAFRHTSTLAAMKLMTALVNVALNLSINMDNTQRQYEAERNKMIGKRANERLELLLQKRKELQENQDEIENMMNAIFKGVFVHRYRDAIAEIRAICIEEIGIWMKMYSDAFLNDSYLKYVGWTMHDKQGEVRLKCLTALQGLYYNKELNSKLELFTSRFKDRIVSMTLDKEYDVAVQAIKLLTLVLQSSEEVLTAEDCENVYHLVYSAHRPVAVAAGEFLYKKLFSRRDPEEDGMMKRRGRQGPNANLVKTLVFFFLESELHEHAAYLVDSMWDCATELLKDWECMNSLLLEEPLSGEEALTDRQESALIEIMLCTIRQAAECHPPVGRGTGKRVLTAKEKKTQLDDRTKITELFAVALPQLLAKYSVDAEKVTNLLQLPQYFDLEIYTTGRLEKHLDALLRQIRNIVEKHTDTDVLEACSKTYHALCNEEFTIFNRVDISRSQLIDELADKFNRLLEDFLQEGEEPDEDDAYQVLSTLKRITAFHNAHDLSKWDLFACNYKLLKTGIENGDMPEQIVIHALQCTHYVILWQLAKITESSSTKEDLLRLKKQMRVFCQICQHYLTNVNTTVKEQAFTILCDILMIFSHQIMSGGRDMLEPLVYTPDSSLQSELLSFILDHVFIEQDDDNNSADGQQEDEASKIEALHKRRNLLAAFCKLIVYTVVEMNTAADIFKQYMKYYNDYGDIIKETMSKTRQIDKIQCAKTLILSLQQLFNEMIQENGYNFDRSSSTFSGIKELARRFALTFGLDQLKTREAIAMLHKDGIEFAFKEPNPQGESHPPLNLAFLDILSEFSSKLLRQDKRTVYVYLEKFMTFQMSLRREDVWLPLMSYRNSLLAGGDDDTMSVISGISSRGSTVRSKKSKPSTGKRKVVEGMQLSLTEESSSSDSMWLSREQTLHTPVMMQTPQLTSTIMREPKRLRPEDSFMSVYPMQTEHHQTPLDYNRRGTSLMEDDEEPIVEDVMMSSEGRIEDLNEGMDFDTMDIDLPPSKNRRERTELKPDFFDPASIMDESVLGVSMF
T1 chain 2: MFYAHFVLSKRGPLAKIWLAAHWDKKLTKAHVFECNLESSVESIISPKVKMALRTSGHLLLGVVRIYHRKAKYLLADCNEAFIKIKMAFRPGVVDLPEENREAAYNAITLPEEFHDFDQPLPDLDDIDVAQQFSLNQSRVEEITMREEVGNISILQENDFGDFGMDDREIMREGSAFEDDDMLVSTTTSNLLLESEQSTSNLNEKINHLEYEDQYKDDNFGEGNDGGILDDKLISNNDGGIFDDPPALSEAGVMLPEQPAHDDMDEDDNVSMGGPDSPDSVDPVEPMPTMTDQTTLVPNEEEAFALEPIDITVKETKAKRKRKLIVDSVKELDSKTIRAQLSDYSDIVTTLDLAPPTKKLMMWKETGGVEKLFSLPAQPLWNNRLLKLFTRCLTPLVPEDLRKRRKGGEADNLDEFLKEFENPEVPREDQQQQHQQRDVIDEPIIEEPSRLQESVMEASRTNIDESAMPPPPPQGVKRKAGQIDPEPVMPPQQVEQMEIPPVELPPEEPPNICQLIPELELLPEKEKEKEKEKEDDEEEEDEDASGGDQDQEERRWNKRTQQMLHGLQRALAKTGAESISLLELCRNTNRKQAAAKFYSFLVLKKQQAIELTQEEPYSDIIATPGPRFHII

[2] = target: STAG2^R370Q–RAD21 complex (human | , UniProt Q8N3U4 1-1231; O60216 1-631, R370Q); experiment: ITC
STAG2^R370Q–RAD21 complex, sequence (Q8N3U4 whole entry R370Q, chain 1 of 2, one chain of several): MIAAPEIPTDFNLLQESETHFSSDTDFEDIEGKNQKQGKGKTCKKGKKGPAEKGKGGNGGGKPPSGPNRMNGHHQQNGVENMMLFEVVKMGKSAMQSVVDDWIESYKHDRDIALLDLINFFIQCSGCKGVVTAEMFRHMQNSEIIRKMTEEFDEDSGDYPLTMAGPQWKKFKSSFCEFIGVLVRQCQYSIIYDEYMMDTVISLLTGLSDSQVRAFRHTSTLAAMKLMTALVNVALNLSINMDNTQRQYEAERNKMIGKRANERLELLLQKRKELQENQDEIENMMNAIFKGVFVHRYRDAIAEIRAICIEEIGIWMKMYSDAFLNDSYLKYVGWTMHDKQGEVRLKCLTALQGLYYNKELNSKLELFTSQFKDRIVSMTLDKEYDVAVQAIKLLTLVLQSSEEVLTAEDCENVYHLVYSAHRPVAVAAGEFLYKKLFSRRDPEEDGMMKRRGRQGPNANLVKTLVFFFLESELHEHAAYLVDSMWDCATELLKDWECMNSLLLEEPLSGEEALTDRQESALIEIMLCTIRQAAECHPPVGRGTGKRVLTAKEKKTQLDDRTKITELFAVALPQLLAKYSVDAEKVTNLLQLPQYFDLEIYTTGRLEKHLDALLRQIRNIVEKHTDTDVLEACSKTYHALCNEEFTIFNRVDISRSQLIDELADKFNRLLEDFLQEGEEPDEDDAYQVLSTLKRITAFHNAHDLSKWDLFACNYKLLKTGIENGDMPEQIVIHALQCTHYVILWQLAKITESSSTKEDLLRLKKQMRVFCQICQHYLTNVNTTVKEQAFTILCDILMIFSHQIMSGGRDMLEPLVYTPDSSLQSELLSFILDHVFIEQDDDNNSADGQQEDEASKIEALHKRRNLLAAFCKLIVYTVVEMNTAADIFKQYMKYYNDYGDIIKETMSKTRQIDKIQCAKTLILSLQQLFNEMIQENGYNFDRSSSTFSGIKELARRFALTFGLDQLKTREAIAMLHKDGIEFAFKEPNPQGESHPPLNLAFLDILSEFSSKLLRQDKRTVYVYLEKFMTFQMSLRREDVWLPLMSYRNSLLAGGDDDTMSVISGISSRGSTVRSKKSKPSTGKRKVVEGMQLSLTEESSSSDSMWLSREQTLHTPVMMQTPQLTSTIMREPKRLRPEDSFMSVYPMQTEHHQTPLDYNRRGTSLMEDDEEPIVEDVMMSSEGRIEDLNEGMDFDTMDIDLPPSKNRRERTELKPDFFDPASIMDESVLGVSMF

- Kd [1]: 1.92 µM
- Kd [2]: 21.7 µM
Binder: DVSVYDFEEE [CTCF peptide]
